Experimental findings from patent US5885833 are described below.

This data set deals with E2F1-DP1 heterodimer (E2F1 aa 87-1398 as printed) (Homo sapiens?) (UniProt Q01094+Q14186). Nature of the data set: EMSA.
The mark [1] stands for this setting: complex not specified individually.

Bounds are passed on as bounds.

E2F1-DP1 heterodimer (E2F1 aa 87-1398 as printed) (Homo sapiens?), sequence (Q01094 whole entry, chain 1 of 2, the tested form may be a part): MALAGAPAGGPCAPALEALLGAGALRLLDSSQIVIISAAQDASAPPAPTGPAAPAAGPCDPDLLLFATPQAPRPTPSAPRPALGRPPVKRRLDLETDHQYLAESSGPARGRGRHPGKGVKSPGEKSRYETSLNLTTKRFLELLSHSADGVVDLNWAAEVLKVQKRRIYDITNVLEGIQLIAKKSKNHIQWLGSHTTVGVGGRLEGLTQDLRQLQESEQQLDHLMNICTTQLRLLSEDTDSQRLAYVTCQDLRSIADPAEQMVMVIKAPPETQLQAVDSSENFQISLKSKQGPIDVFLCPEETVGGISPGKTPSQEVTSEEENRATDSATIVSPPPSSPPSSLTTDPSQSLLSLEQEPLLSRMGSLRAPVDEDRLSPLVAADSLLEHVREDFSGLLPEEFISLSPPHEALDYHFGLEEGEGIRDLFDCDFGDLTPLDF
E2F1-DP1 heterodimer (E2F1 aa 87-1398 as printed) (Homo sapiens?), sequence (Q14186 whole entry, chain 2 of 2, the tested form may be a part): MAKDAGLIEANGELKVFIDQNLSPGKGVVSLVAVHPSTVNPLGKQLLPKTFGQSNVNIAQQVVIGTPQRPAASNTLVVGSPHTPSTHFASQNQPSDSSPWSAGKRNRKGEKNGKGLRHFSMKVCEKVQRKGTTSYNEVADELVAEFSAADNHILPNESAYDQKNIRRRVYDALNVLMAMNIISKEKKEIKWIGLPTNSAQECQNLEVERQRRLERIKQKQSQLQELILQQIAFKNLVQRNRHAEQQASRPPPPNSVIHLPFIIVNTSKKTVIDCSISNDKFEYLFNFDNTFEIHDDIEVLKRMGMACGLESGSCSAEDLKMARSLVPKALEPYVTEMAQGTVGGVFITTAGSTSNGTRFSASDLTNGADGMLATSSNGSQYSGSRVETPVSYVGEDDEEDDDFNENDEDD

Turning to “GGCGCCGACGCACTTGGCTGGAGATAGGAAAGTGGTTCTGTG (double strand) [mutated B-myb probe]”, the binding signal (% probe bound) under setting [1] is less than 0.01.

“GATCCTCTCACCTGCTGCTAG (double strand) [control probe]”: the binding signal (% probe bound) under setting [1] is less than 0.002.

Under “22 C, 50 mM NaCl, pH 8.0”, “GATCGACTAGTTTCGCGCCCTTTCTACTAG (double strand) [E2a adenovirus promoter probe]” returned a binding signal (% probe bound) of 1.
